Measured values taken from article PMC9016352, “Disease‐linked TDP‐43 hyperphosphorylation suppresses TDP‐43 condensation and aggregation”.

Tests used:
TDP‐43 = TDP‐43 (UniProt Q13148); assay: condensate sedimentation assay, TDP-43 Western blot; conditions: reference: unmodified TDP-43 (no CK1δ, no ATP); sites S403,S404,S409,S410
TDP-43-MBP-His6 Wt = TDP-43-MBP-His6 Wt (human (hTDP-43)?, UniProt Q13148 1-414); assay: EMSA; 20 mM NaPO4 pH 8, 150 mM NaCl, 1 mM DTT, 5 mM MgCl2, 0.5 mg/ml BSA, 0.1 mg/ml yeast tRNA, 5% glycerol, 1 U/ul RNase inhibitor, 20 min RT; 16 nM Cy5-RNA, 0-1.6 uM protein; 6% native PAGE 0.5x TBE; conditions: protein: recombinant; tags: C-terminal TEV site-MBP-His6; label: 5' Cy5

| other: S/(S+C) ratio (higher = less condensate) (TDP‐43) | Molecule | binding result (TDP-43-MBP-His6 Wt) |
| --- | --- | --- |
| weaker; reference ~0.25 | TDP‐43 (from UniProt Q13148) TDP-43 + CK1δ + ATP |  |
|  | UGUGUGUGUGUGUGUGUGUGUGUG (ssRNA) [(UG)12 RNA] | binds |
